Test results: patent US20240132578A1

Assays:
Assay in all cases: cell-based or functional assay
[1] = target: HIV-1 Env of isolate MGRM-A-014 (subtype A) (HIV-1)
[2] = target: HIV-1 JR-CSF Env F468A (HIV-1 (isolate JR-CSF)) (UniProt P20871)
[3] = target: HIV-1 JR-CSF Env N301A (HIV-1 (isolate JR-CSF, clade B)) (UniProt P20871)
[4] = target: HIV-1 Env of isolate MGRM-A-007 (subtype A) (HIV-1)
[5] = target: HIV-1 Env of isolate CMU02 (subtype AE) (HIV-1)
[6] = target: HIV-1 Env of isolate 92TH021 (subtype AE) (HIV-1)
[7] = target: HIV-1 Env of pseudovirus isolate MGRM-C-019 (clade C) (HIV-1)
[8] = target: HIV-1 Env of isolate MGRM-AG-008 (subtype AG) (HIV-1)
[9] = target: HIV-1 Env of isolate MGRM-D-018 (pseudovirus) (HIV-1)
[10] = target: HIV-1 Env of isolate MGRM-A-001 (pseudovirus) (HIV-1)
[11] = target: HIV-1 92UG005 envelope protein (Env) on pseudovirus (HIV-1)
[12] = target: HIV-1 envelope glycoprotein (Env) of isolate THRO.18, on pseudovirus (HIV-1)
[13] = target: HIV-1 envelope glycoprotein (Env) of isolate MG RM-A-010, subtype A (HIV-1)
[14] = target: HIV-1 envelope glycoprotein (Env) of isolate NL43, on pseudovirus (HIV-1)
[15] = target: HIV-1 envelope glycoprotein (Env) of isolate 93WR029, subtype A (HIV-1)
[16] = target: HIV-1 92UG005 Env (HIV-1)
[17] = target: HIV-1 MGRM-C-027 Env (HIV-1)
[18] = target: HIV-1 Env of pseudovirus MGRM-D-028 (HIV-1)
[19] = target: HIV-1 Env of pseudovirus MGRM-F1-013 (HIV-1)
[20] = target: HIV-1 envelope glycoprotein (Env) of isolate MG RM-AG-003 (HIV-1)
[21] = target: HIV-1 Env of pseudovirus MGRM-D-029 (HIV-1)
[22] = target: HIV-1 Env of pseudovirus MGRM-F1-012 (HIV-1)
[23] = target: HIV-1 Env of pseudovirus MGRM-D-022 (HIV-1)
[24] = target: HIV-1 Env of isolate MGRM-G-001 (subtype G) (HIV-1)
[25] = target: HIV-1 Env of isolate MGRM-C-017 (subtype C), on pseudovirus (HIV-1)
[26] = target: HIV-1 Env of isolate MGRM-G-013 (subtype G) (HIV-1)
[27] = target: HIV-1 Env of isolate MG RM-A-010 (pseudovirus) (HIV-1)
[28] = target: HIV-1 Env of isolate MG RM-A-009 (pseudovirus) (HIV-1)
[29] = target: HIV-1 Env of pseudovirus isolate CAAN.A2 (clade B) (HIV-1)
[30] = target: HIV-1 Env of pseudovirus isolate MGRM-Chronic-B-001 (clade B) (HIV-1)

Chain of PGT-141 (4964_G22; 4993_K13) (antibody) (VH): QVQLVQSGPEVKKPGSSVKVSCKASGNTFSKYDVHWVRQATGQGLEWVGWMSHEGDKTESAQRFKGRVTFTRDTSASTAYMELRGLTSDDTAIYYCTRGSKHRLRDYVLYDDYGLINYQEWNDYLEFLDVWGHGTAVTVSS
Chain of PGT-141 (4964_G22; 4993_K13) (antibody) (VL): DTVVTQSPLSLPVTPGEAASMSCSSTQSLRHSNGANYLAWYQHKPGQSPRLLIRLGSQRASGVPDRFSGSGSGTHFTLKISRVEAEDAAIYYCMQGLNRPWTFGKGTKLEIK
Chain of PGT-144 (4970_K22) (antibody) (VH): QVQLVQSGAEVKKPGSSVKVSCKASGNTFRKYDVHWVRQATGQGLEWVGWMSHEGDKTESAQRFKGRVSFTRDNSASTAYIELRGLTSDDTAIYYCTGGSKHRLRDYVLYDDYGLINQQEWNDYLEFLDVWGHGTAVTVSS
Chain of PGT-144 (4970_K22) (antibody) (VL): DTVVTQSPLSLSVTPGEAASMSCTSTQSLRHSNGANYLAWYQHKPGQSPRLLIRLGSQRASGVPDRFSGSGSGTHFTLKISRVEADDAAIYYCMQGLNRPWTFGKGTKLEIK
Chain of PGT-142 (4995_E20) (antibody) (VH): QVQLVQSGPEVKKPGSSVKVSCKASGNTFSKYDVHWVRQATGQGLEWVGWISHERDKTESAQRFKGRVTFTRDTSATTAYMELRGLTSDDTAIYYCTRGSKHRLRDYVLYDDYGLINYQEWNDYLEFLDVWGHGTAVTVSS
Chain of PGT-145 (4995_P16) (antibody) (VH): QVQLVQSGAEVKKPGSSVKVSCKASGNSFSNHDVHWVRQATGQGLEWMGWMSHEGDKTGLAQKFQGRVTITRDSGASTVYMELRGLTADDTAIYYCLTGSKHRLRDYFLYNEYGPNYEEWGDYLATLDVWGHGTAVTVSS
Chain of PGT-145 (4995_P16) (antibody) (VL): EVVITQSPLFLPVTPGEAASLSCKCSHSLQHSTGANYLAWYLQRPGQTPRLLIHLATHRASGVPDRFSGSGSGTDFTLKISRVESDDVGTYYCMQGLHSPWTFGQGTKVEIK
Chain of PGT-143 (4980_N08) (antibody) (VH): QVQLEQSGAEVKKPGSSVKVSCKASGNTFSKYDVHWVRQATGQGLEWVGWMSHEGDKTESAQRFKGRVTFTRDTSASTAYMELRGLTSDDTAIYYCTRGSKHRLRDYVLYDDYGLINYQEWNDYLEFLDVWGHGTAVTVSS
Chain of PGT-143 (4980_N08) (antibody) (VL): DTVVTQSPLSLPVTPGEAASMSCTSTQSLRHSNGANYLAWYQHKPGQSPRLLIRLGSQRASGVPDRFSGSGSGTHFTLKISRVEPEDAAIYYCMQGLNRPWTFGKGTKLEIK

Substance	IC50, pseudovirus neutralization [1] [µg/mL]	Fold IC50 increase relative to wild-type (pseudovirus neutralization) [2] [fold]	Fold IC50 increase relative to wild-type [3] [fold]	IC50, pseudovirus neutralization [4] [µg/mL]	IC50, pseudovirus neutralization [5] [µg/mL]	IC50, pseudovirus neutralization [6] [µg/mL]	IC50, pseudovirus neutralization [7] [µg/mL]	IC50, pseudovirus neutralization [8] [µg/mL]	IC50 (µg/mL), pseudovirus neutralization [9] [µg/mL]	IC50 (µg/mL), pseudovirus neutralization [10] [µg/mL]	IC50 (ug/mL), pseudovirus neutralization [11] [µg/mL]	IC50, pseudovirus neutralization [18] [µg/mL]	IC50, pseudovirus neutralization [19] [µg/mL]	IC50 [20] [µg/mL]	IC50, pseudovirus neutralization [21] [µg/mL]	IC50, pseudovirus neutralization [22] [µg/mL]	IC50, pseudovirus neutralization [23] [µg/mL]	further results
5114_A19 (PGT-128) (antibody)	0.007	0.5	10.7	> 50	> 50	0.01	0.01	0.668	0.008	> 50	–	–	–	–	–	–	–	–
5123_A06 (PGT-125) (antibody)	–	1	213	–	–	–	–	–	–	–	> 10	–	–	–	–	–	–	IC50, pseudovirus neutralization [12]: > 50 µg/mL; IC50, pseudovirus neutralization [13]: 0.004 µg/mL; IC50, pseudovirus neutralization [14]: > 50 µg/mL; IC50, pseudovirus neutralization [15]: > 50 µg/mL; IC50, pseudovirus neutralization [16]: > 10 µg/mL; IC50, pseudovirus neutralization [17]: > 10 µg/mL
5136_H01 (PGT-131) (antibody)	15.4	1.6	> 170	> 50	> 50	0.014	0.021	> 50	0.148	> 50	–	–	–	–	–	–	–	–
5141_B17 (PGT-126) (antibody)	–	0.7	314	–	–	–	–	–	–	–	0.0181	–	–	–	–	–	–	IC50, pseudovirus neutralization [12]: > 50 µg/mL; IC50, pseudovirus neutralization [13]: 0.002 µg/mL; IC50, pseudovirus neutralization [14]: > 50 µg/mL; IC50, pseudovirus neutralization [15]: > 50 µg/mL; IC50, pseudovirus neutralization [16]: 0.0181 µg/mL; IC50, pseudovirus neutralization [17]: 1.14 µg/mL
5145_B14 (PGT-127) (antibody)	–	3	> 250	–	–	–	–	–	–	–	–	–	–	–	–	–	–	IC50, pseudovirus neutralization [12]: > 50 µg/mL; IC50, pseudovirus neutralization [13]: 0.017 µg/mL; IC50, pseudovirus neutralization [14]: > 50 µg/mL; IC50, pseudovirus neutralization [15]: > 50 µg/mL
5147_N06 (PGT-130) (antibody)	0.161	0.4	> 1000	> 50	> 50	0.009	0.01	> 50	0.049	> 50	0.474	–	–	–	–	–	–	IC50, pseudovirus neutralization [16]: 0.474 µg/mL; IC50, pseudovirus neutralization [17]: 0.0052 µg/mL
5329_C19 (PGT-136) (antibody)	> 50	–	–	> 50	> 50	> 50	20.1	> 50	> 50	> 50	> 10	–	–	–	–	–	–	–
5343_B08 (PGT-135) (antibody)	0.636	1.1	–	> 50	> 50	> 50	0.264	> 50	0.039	> 50	> 10	–	–	–	–	–	–	–
PGT-141 (4964_G22; 4993_K13) (antibody)	–	–	–	–	–	–	–	–	–	–	–	< 50	0.043	> 50	0.057	> 50	> 50	–
PGT-142 (4995_E20) (antibody)	–	–	–	–	–	–	–	–	–	–	–	> 50	0.023	> 50	0.192	> 50	> 50	–
PGT-143 (4980_N08) (antibody)	–	–	–	–	–	–	–	–	–	–	–	> 50	0.013	> 50	0.2	> 50	> 50	–
PGT-144 (4970_K22) (antibody)	–	–	–	–	–	–	–	–	–	–	–	> 50	0.509	> 50	0.459	> 50	> 50	–
PGT-145 (4995_P16) (antibody)	–	–	–	–	–	–	–	–	–	–	–	0.721	0.402	> 50	0.03	0.113	34.3	–
VRC01 (antibody)	–	–	–	–	–	–	–	–	–	–	–	0.377	0.17	0.043	3.22	0.488	> 50	IC50 (µg/mL), pseudovirus neutralization [24]: 0.0371 µg/mL; IC50, single-round pseudovirus neutralization [25]: 0.366 µg/mL; IC50 (µg/mL), pseudovirus neutralization [26]: 0.553 µg/mL; IC50 (µg/mL), single-round pseudovirus neutralization [27]: 0.325 µg/mL; IC50 (µg/mL), single-round pseudovirus neutralization [28]: 0.118 µg/mL; IC50, pseudovirus neutralization [29]: 0.722 µg/mL; IC50, pseudovirus neutralization [30]: 0.066 µg/mL
